Laboratory results taken from PMC6891087 (2019).

Molecular target: unmodified nucleosome core particle (human | Xenopus laevis, UniProt P04908 1-130; P06899 1-126)
Assay: SPR

B1: CPC_LM containing the Survivin BIR mutant K62/E65/H80A (complex)
chain 1: MAPRKGSSRVAKTNSLRRRKLASFLKDFDREVEIRIKQIESDRQNLLKEVDNLYNIEILRLPKALREMNWLDYFALGGNKQALEEAATADLDITEINKLTAEAIQTPLKSAKTRKVIQVDEMIVEEEEEEENERKNLQTARVKRCPPSKKRTQSIQGKGKGKRSSRANTVTPAVGRLEVSMVKPTPGLTPRFDSRVFKTPGLRTPAAGERIYNISGNGSPLADSKEIFLTVPVGGGESLRLLASDLQRHSIAQLDPEALGNIKKLSNRLAQICSSIRTHK
chain 2: MGAPTLPPAWQPFLKDHRISTFKNWPFLEGCACTPERMAEAGFIHCPTENEPDLAQCFFCFAELAGWEPDDDPIEEHKKASSGCAFLSVKKQFEELTLGEFLKLDRERAKNKIAKETNNKKKEFEETAKKVRRAIEQLAAMD
chain 3: MGTTAPGPIHLLELCDQKLMEFLCNMDNKDLVWLEEIQEEAERMFTREFSKEPELMPK
B1 showed a Kd of 309 nM.
